Source: patent US20190160076A1 (University of California, published 2019)

Molecular target: T1, V5-tagged human lipoprotein lipase (LPL) (human, UniProt P06858 28-475)
T1 construct: also called V5-tagged human LPL; V5-LPL; not shown: V5 tag
T1 sequence: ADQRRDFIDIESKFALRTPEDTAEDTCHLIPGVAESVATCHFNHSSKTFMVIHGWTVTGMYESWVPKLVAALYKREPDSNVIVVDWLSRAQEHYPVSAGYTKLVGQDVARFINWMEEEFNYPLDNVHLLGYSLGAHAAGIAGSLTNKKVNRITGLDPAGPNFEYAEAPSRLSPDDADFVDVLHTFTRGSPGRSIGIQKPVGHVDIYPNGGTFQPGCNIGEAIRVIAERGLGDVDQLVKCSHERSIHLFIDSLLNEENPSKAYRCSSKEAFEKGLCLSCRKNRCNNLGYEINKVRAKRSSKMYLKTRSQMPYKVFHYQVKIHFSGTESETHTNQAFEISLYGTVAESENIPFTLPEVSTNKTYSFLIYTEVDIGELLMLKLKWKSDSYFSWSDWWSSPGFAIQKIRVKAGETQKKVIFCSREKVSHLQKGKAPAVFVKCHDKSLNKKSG
Experiment: cell-based LPL binding, western blot of CHO cell extracts (FIG. 4A)
Protocol: FIG. 4A-B. GPIHBP1 Autoantibodies Block the Binding of LPL to GPIHBP1. […] The LPL used in these experiments was V5-tagged. Western blots were performed with a goat antibody against the S-protein tag (Abcam, 5 μg/ml), followed by an IRDye 680-donkey anti-goat IgG (LI_COR, 1:2000; GPIHBP1) and an IRDye 800-V5 antibody (1:500; LPL). Actin was used as a loading control, and was detected with a rabbit antibody against actin (Abcam, 5 μg/ml) followed by an IRDye 800-donkey anti-rabbit IgG (LI-COR, 1:2000; lower panel). […] In lane 5, pre-incubation of cells with plasma 38 (1:20) abolished LPL binding. […] In lane 2, a mutant GPIHBP1 (GPIHBP1-W109S), which lacks the ability to bind LPL, was included as a control. […] DNA was stained with DAPI (fourth column).
Expression vectors for S-protein-tagged wild-type (wt) GPIHBP1, GPIHBP1-G175R, and GPIHBP1-W109S (or the empty vector) were transfected into CHO pgsA-745 cells or human umbilical vein endothelial cells (HUVEC). After 1 day, the cells were washed three times in PBS and incubated for 1 h at 4° C. with V5-tagged human LPL (900 ng/well). Then the cells were washed six times in PBS, and cell lysates were collected in RIPA buffer (Sigma) containing a protease inhibitor cocktail (Roche). […]

binding result: binds
B1: S-protein-tagged wild-type human GPIHBP1 (GPIHBP1-wt) expressed on transfected CHO pgsA-745 cells (receptor)
chain: QTQQEEEEEDEDHGPDDYDEEDEDEVEEEETNRLPGGRSRVLLRCYTCKSLPRDERCNLTQNCSHGQTCTTLIAHGNTESGLLTTHSTWCTDSCQPITKTVEGTQVTMTCCQSSLCNVPPWQSSRVQDPTG
notes: also called GPIHBP1-transfected cells; GPIHBP1-expressing cells; not shown: S-protein tag
